Earlier results as cited in US20230142365A1, “POLY(SARCOSINE) POLYMER EXCIPIENTS” (CALUSA BIO, LLC, priority 2021, published 2023).

System: anti-drug antibodies (ADAs)
Settings: share of anti-drug antibodies against the TNF blocker that are neutralizing; van Schie et al. 2015

**Q.** For “infliximab: tumor necrosis factor (TNF) blocker Remicade (infliximab)”, which ADAs neutralizing is on record?
**A.** The ADAs neutralizing was 90%.

**Q.** For adalimumab, which ADAs neutralizing is on record?
**A.** Its ADAs neutralizing is 97%.
